Consider three molecules from EP1666595A1 (Beth Israel Deaconess Medical Center, Inc., dated 2006).

The labels stand for the following.
B1: Crk (endogenous, in BaF3 cells) (other, UniProt Q64010 2-304, looked up)
chain: AGNFDSEERSSWYWGRLSRQEAVALLQGQRHGVFLVRDSSTSPGDYVLSVSENSRVSHYIINSSGPRPPVPPSPAQPPPGVSPSRLRIGDQEFDSLPALLEFYKIHYLDTTTLIEPVARSRQGSGVILRQEEAEYVRALFDFNGNDEEDLPFKKGDILRIRDKPEEQWWNAEDSEGKRGMIPVPYVEKYRPASASVSALIGGNQEGSHPQPLGGPEPGPYAQPSVNTPLPNLQNGPIYARVIQKRVPNAYDKTALALEVGELVKVTKINVSGQWEGECNGKRGHFPFTHVRLLDQQNPDEDFS
B2: Gab2HA (HA-tagged wild type Gab2) (other, not shown: small tags and cut ends)
chain: MSGGGGDDVVCTGWLRKSPPEKKLRRYAWKKRWFILRSGRMSGDPDVLEYYKNEHSKKPLRIINLNLCEQVDAGLTFNKKELQDSFVFDIKTSERTFYLVAETEADMNKWVQSICQICGFNQAEESTDSLRNLSSASHGPRSSPAEFSSSQHLLRERKSSAPSHSSQPTLFTFEPPVSSHMQPTLSTSAPQEYLYLHQCISRRTENARSASFSQGTRQKSDTAVQKLAQSNGHCINGVGGQVHGFYSLPKPSRHNTEFKDSTYDLPRSLASHGHTKSSLTGSETDNEDVYTFKMPSNTLCRELGDLLVDNMDVPTTPLSAYQIPRTFTLDKNHNAMTVATPGDSAIAPPPRPPKPSQAETSQWGSIQQRPPISENSRSVAATIPRRNTLPAMDNSRLHRASSCETYEYPARGSGESASWSAEPPGKTAVGRSNSASSDDNYVPMNPGSSTLLAMERPGDNSQSVYIPMSPGPHHFDPLGYPSTALPIHRGPSRGSEIQPPPVNRNLKPDRKAKPTPLDLRNNTVIDELPFKSPVTKSWSRINSHTFNSSSSQYCRPISTQSITSTDSGDSEENYVPMQNPVSASPVPSGTNSPAPKKSTGSVDYLALDFQPGSPSPHRKPSTSSVTSDEKVDYVQVDKEKTQALQNTMQEWTDVRQSSEPSKGAKL
modifications: tyrosyl phosphorylated upon IL-3 stimulation
B3: Crk-L (endogenous, in BaF3 cells) (other, UniProt P47941 1-303, looked up)
chain: MSSARFDSSDRSAWYMGPVTRQEAQTRLQGQRHGMFLVRDSSTCPGDYVLSVSENSRVSHYIINSLPNRRFKIGDQEFDHLPALLEFYKIHYLDTTTLIEPAPRYPSPPVGSVSAPNLPTAEENLEYVRTLYDFPGNDAEDLPFKKGELLVIIEKPEEQWWSARNKDGRVGMIPVPYVEKLVRSSPHGKHGNRNSNSYGIPEPAHAYAQPQTTTPLPTVASTPGAAINPLPSTQNGPVFAKAIQKRVPCAYDKTALALEVGDIVKVTRMNINGQWEGEVNGRKGLFPFTHVKIFDPQNPDDNE
notes: Named in brackets next to Crk

The target of experiment [1] is T1, Gab2 (endogenous, in BaF3, P210BCR-ABL BaF3 and BAC1.2F5 cells) (Mus musculus (Mouse), UniProt Q9Z1S8 1-665, tyrosyl phosphorylated upon stimulation; Y604 and Y633 'both sites are highly phosphorylated').
T1 construct: BaF3 is a murine line, and KIAA0571 is called the possible human homolog; also called p97; p97/Gab2
Nature of the experiment: immunoprecipitation and immunoblotting, BaF3 cells.

Experiment [2] addresses B2. Nature of the experiment: immunoprecipitation and immunoblotting, transfected BaF3 cells. Background: In western blotting, separated proteins are transferred to a membrane and probed.
In experiment [3] the target is T2, SHP-2 (endogenous, in BaF3, P210BCR-ABL BaF3 and BAC1.2F5 cells) (UniProt P35235 2-593).
T2 sequence (looked up): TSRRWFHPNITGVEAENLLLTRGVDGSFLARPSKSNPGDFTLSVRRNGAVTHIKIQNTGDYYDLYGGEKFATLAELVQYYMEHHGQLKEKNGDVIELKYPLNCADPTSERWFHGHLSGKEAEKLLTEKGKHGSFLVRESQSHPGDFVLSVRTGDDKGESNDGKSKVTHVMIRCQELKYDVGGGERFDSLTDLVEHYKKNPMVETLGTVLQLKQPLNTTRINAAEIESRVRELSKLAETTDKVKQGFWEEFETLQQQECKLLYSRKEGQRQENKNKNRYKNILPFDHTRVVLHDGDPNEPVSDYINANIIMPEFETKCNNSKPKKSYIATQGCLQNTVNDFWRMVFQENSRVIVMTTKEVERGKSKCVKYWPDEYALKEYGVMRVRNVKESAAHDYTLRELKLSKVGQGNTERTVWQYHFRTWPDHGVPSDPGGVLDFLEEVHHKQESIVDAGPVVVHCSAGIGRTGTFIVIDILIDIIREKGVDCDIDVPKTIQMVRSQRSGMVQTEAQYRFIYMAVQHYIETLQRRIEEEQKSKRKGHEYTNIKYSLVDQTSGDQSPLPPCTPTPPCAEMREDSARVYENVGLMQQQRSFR
Put plainly: cell-based or functional assay.

On to B1, for which the binding result in experiment [1] and in experiment [2] was “no binding” throughout.

With B2, in experiment [3], the “basal c-fos luciferase activity” value was roughly 2 fold.

Regarding B3, the binding result in experiment [1] and in experiment [2] was “no binding” throughout.
